In US20250339493A1, “METHODS OF USING NEUREGULIN-4 COMPOUNDS” (priority 2022, published 2025):

Key:
[1] = Single-ascending dose study in healthy participants: plasma pharmacokinetics after single SC or IV dose; design: species or system human; settings: in vivo
Text: A multiple-center, investigator- and participant-blind, randomized, placebo-controlled, single-ascending dose study is designed to evaluate the safety and tolerability of a single subcutaneous (SC) dose or an intravenous (IV) dose of the NRG4 compound of SEQ ID NO:1 in healthy participants. Cohorts 1-5 are intended to receive a single SC dose of the NRG4 compound or placebo. Cohort 6 is used to assess a single IV injection of the NRG4 compound. This cohort is to enable an estimation of absolute bioavailability of the NRG4 compound. Doses for the cohorts are as follows: • Cohort 1:1 mg (6 participants NRG4 compound; 2 participants placebo)· • Cohort 2:3 mg (6 participants NRG4 compound; 2 participants placebo). • Cohort 3:10 mg (6 participants NRG4 compound; 2 participants placebo). • Cohort 4:30 mg (6 participants NRG4 compound; 2 participants placebo). • Cohort 5:60 mg (6 participants NRG4 compound; 2 participants placebo). • Cohort 6 (8 participants 3 mg NRG4 compound IV) 48 participants received a dose of NRG4 compound or placebo, with eight males, and 40 females. The age range of the participants was 25 to 65 years. A stable dose of antihypertensive medication, with the exception of beta blockers, and lipid lowering medication were allowed. The study intervention was administered either via a single SC injection into the lower abdominal region or as an IV bolus from a syringe to an indwelling venous catheter. Study interventions administered are summarized in Table 2: On Day 1, participants receive a single dose of their assigned treatment (either NRG4 compound or placebo) for first 5 cohorts and NRG4 compound for the final IV cohort. PK sampling and safety assessments, including AEs, medical assessments, clinical laboratory tests, vital signs, and ECGs, were performed at predefined times through discharge from the CRU on Day 4. Dose escalated cohorts were only initiated after satisfactory review of the safety results from all participants receiving NRG4 compound in the preceding cohort through Day 4. Participants returned to the CRU for outpatient visits on Days 7 and 15 for PK, safety, and immunogenicity assessments, as appropriate. Follow-up visit for PK, safety, and immunogenicity monitoring occurred on Day 29. At the visits and times specified in the protocol venous blood samples of approximately 3 mL each were collected to determine the plasma concentrations of NRG4 compound. PK parameter estimates for NRG4 compound were calculated by standard noncompartmental methods of analysis using Phoenix WinNonlin Version 8.1. […] The PK parameters were summarized and listed separately for SC and IV-dosed cohorts. The plasma concentrations of the NRG4 compound were plotted and summarized. The dose proportionality for SC doses of NRG4 compound were assessed for the log-transformed Cmax, AUC (0-∞), and AUC (0-tlast) using a power model (where log-dose acted as an explanatory variable) to estimate ratios of dose normalized geometric means and corresponding 90% CIs. The estimated ratio of dose-normalized geometric means of PK parameters between the highest and lowest doses were used to assess dose proportionality.

[2] = Single-ascending dose study in healthy participants: safety and tolerability; format: in vivo
Text: A multiple-center, investigator- and participant-blind, randomized, placebo-controlled, single-ascending dose study is designed to evaluate the safety and tolerability of a single subcutaneous (SC) dose or an intravenous (IV) dose of the NRG4 compound of SEQ ID NO:1 in healthy participants. Cohorts 1-5 are intended to receive a single SC dose of the NRG4 compound or placebo. Cohort 6 is used to assess a single IV injection of the NRG4 compound. This cohort is to enable an estimation of absolute bioavailability of the NRG4 compound. Doses for the cohorts are as follows: • Cohort 1:1 mg (6 participants NRG4 compound; 2 participants placebo)· • Cohort 2:3 mg (6 participants NRG4 compound; 2 participants placebo). • Cohort 3:10 mg (6 participants NRG4 compound; 2 participants placebo). • Cohort 4:30 mg (6 participants NRG4 compound; 2 participants placebo). • Cohort 5:60 mg (6 participants NRG4 compound; 2 participants placebo). • Cohort 6 (8 participants 3 mg NRG4 compound IV)
48 participants received a dose of NRG4 compound or placebo, with eight males, and 40 females. The age range of the participants was 25 to 65 years. A stable dose of antihypertensive medication, with the exception of beta blockers, and lipid lowering medication were allowed. […]

[3] = Rat continuous SC infusion toxicology study; format: in vivo
Description: (§1) Table 3 presents the estimated margins of safety of 21 mg/day infused for 24 hours and 140 mg/day infused for 96 hours doses of NRG4 compound. The anticipated therapeutic benefit for patients with HFrEF outweighs any potential risks identified in the nonclinical safety profile.

[4] = Cynomolgus continuous SC infusion toxicology study; format: in vivo, cynomolgus monkey
Description: as §1

[5] = rat non-repro NOAEL (F), 16.1 mg/kg/day, 96 h SC infusion
[6] = rat, in vivo, sc, 1.6 mg/kg/day
[7] = cynomolgus monkey, in vivo, sc, 156 mg/kg/day
[8] = monkey NOAEL (M + F), 12.6 mg/kg/day, 96 h SC infusion

NRG4 compound: NRG4 compound comprising amino acid sequence SEQ ID NO:1: GGGGSGHEEPCGPSHKSFCLNGGLCYQIPTIPSPFCRCVENYTGARCEKVEL; selective HER4 binding (GGGGSGHEEPCGPSHKSFCLNGGLCYQIPTIPSPFCRCVENYTGARCEKVFL)
geometric mean F (absolute bioavailability) [1]: 104%
geometric mean CL ([1]; iv): 6.01 L/h
geometric mean Vss ([1]; iv): 13.6 L
geometric mean Vz ([1]; iv): 22.0 L
geometric mean t1/2 ([1]; iv): 2.53 h
dose proportionality of AUC (0-0) ([1]; sc): slightly higher than proportional
dose proportionality of Cmax ([1]; sc): slightly less than proportional
dose proportionality of PK ([1]; sc): increase approximately proportionally
geometric mean CL/F ([1]; sc): 4.88 to 6.05 L/h
geometric mean Vz/F ([1]; sc): 19.2 to 24.3 L
geometric mean t1/2 ([1]; sc): 2.45 h
mean CL/F ([1]; sc): 4.9 to 6.05 L/h
mean half-life ([1]; sc): 2.20 to 3.21 h
median tmax ([1]; sc): 2.0 h
tmax range ([1]; sc): 1.00 to 4.08 h
t½ ([1]; sc): 2.5 to 3 h
overall safety and tolerability ([2]; in vivo): safe and well-tolerated
deaths, serious adverse events, discontinuations due to adverse events ([2]; single SC 1 to 60 mg or IV 3 mg, healthy participants): no deaths, serious adverse events (SAEs) or discontinuations due to adverse events were reported
AUC0-t [3, 5]: 53.3 µg·h/mL
Cave, ss [3, 5]: 540 ng/mL
Non-repro NOAEL (F) dose ([3]; rat, female, continuous SC infusion 96 h): 16.1 mg/kg/day
AUC0-t [3, 6]: 7.17 µg·h/mL
Cave, ss [3, 6]: 72 ng/mL
LOAEL (M) dose ([3]; rat, male, continuous SC infusion 96 h): 1.6 mg/kg/day
Cave, ss Multiple, Max Dose ([4]; cynomolgus monkey, in vivo): 16.9
Cave, ss Multiple, Start Dose ([4]; cynomolgus monkey, in vivo): 109
AUC0-t [4, 7]: 1840 µg·h/mL
Cave, ss [4, 7]: 18600 ng/mL
AUC0-t [4, 8]: 148 µg·h/mL
Cave, ss [4, 8]: 1490 ng/mL
NOAEL (M + F) dose ([4]; monkey, continuous SC infusion 96 h): 12.6 mg/kg/day
